Assays:
[1] = system: Pseudomonas aeruginosa strain CFS-1292 (meropenem resistant); assay: MIC in 25% CAA alone, with […] human serum or […] SURVANTA (Table 13); type: cell-based
Description: Materials and methods: MICs were determined by broth microdilution in media supplemented with human serum and pulmonary surfactant ([…]®; Myoderm Clinical Supplies). Minimal biofilm eradicating concentrations (MBECs) were determined using standard methods. […] Fluorescence microscopy was performed after LIVE/DEAD staining (ThermoFisher) and TEM was performed.

[2] = system: Pseudomonas aeruginosa strain 1292; settings: 10 μg/mL, 15 minutes, 100% human serum
Description: Samples were stained using the Live/Dead Cell Viability Kit (ThermoFisher) and examined by both differential interference contrast (DIC) and fluorescence microscopy.

B1: GN121: variant lysin (SEQ ID NO: 175), also disclosed in WO 2019/118632 (protein)
chain: MTYTLSKRSLDNLKGVHPDLVAVVHRAIQLTPVDFAVIEGLRSVSRQKELVAAGASKTMNSRHLTGHAVDLAAYVNGIRWDWPLYDAIAVAVKAAAKELGVAIVWGGDWTTFKDGPHFELDRSKYRRKKTRKRLKKIGKVLKWI
MIC in […] Survanta [1]: 2 µg/mL
MIC in human serum ([…]) in CAA [1]: 0.5 µg/mL
activity in human serum and pulmonary surfactant [1]: active in human serum and pulmonary surfactant
25% CAA MIC ([1]; media alone): 1
live/dead bacteria by microscopy [2]: a reduction of live bacteria
